This is an account of results in publication PMC5607582.

The target in this experiment is trimeric H5-S·Tag (ectodomain of H5 hemagglutinin of A/duck/Viet Nam/TG24-01/2005 (H5N1) fused to GCN4-pII and S·Tag) (influenza A virus A/duck/Viet Nam/TG24-01/2005 (H5N1) | not stated | bovine).
“S·Protein-GCN4 (S·Protein fused to the dimerization domain GCN4 wild-type) (from UniProt P61823 47-150)” gave a hemagglutination titer (HAU) of plant extract after co-expression in plants of 2 HAU.

Turning to “wild-type S·Protein (bovine pancreatic ribonuclease A residues 21-124) (from UniProt P61823 47-150) (domain or fragment)”, the hemagglutination titer (HAU) of plant extract after co-expression in plants stood at 4 HAU.

“S·Protein-TP (S·Protein of bovine ribonuclease A fused to the tailpiece of mouse IgM) (from UniProt P61823 47-150)” yielded a hemagglutination titer (HAU) of plant extract after co-expression in plants of 256 HAU.

The substance “S·Protein-pII (S·Protein fused to the trimerization domain GCN4-pII) (from UniProt P61823 47-150)” returned a hemagglutination titer (HAU) of plant extract after co-expression in plants of 0 HAU.
